Reference: US20110166062A1 (INDIANA UNIVERSITY RESEARCH AND TECHNOLOGY, published 2011)
Where no end group is shown, it is not given here. [ ]: non-standard residue; d: D form. The star is where a group is joined. C18 fatty acyl = 18 carbon fatty acyl group covalently attached to Lys; PEG 40 kDa = PEG (40 kDa) covalently attached to Cys; Palmitoyl = CCCCCCCCCCCCCCCC(=O)*; Myristoyl = CCCCCCCCCCCCCC(=O)*; Dab = NCC[C@H](N)C(=O)O; Aib = CC(C)(N)C(=O)O

T1: GIP receptor (UniProt P48546 22-466)
T1 sequence (looked up): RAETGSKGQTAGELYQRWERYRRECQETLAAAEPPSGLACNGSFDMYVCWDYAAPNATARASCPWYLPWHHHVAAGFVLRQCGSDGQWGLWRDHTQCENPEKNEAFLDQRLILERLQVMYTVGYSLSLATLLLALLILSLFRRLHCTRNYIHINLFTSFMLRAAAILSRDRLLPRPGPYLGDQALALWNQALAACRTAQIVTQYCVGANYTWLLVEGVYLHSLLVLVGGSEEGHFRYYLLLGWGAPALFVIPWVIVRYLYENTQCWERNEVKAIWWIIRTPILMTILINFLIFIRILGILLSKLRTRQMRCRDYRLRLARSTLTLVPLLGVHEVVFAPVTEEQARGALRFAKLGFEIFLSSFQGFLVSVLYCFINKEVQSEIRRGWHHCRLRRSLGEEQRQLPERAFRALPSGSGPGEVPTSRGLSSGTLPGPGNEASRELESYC


Legend:
Assay in all cases: cell-based or functional assay
[1] = molecular target: glucagon receptor (UniProt P47871 26-477, limits assumed)
Chain of glucagon receptor (P47871 26-477 limits assumed): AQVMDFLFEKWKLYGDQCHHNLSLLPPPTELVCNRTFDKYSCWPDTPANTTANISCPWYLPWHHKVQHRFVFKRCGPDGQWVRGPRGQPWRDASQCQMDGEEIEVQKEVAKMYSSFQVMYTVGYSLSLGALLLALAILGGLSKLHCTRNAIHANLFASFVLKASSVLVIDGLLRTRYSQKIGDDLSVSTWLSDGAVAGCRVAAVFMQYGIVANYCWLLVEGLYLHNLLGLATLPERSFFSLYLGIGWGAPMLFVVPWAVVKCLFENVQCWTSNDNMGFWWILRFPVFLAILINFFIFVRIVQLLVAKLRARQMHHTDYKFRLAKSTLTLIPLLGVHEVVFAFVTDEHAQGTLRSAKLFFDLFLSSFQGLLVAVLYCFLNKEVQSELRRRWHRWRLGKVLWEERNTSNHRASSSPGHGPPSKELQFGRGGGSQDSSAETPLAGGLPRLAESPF

[2] = molecular target: GLP-1 receptor (UniProt P43220 24-463, limits assumed)
[3] = molecular target: T1, GIP receptor

Row | Binder | EC50 [1] [nM] | EC50 [2] [nM] | EC50 [3] [nM] | relative activity [1] [%] | relative activity [2] [%] | relative activity [3] [%]
1 | Y[Aib]EGTFTSDYSIYLDKQAA[Aib]EFVNWLLAGGPSSGAPPPSK(Myristoyl)-NH2 [mt-260] | 0.321 | 0.0068 | 0.0018 | – | – | –
2 | Y[Aib]EGTFTSDYSIYLDKQAA[Aib]EFVC(PEG 40 kDa)WLLAGGPSSGAPPPSK(Myristoyl)-NH2 [mt-309] | 3.61 | 0.0104 | 0.0091 | 1.77 | 151 | 226
3 | Y[Aib]EGTFTSDYSIYLDKQAA[Aib]EFVCWLLAGGPSSGAPPPSK(C18 fatty acyl)-NH2 [mt-307] | – | 0.0143 | 0.0127 | – | – | –
4 | Y[Aib]EGTFTSDYSIYLDKQAA[Aib]EFVC(PEG 40 kDa)WLLAGGPSSGAPPPSK-NH2 (not fully specified) [mt-311] | 197 | 0.217 | 0.0545 | 0.03 | 7.22 | 37.8
5 | Y[Aib]QGTFTSDYSIYLD[Dab]QAA[Aib]EFVNWLLAGGPSSGAPPPSC-NH2 (N-terminus assumed; SMILES CC[C@H](C)[C@H](NC(=O)[C@H](CO)NC(=O)[C@H](Cc1ccc(O)cc1)NC(=O)[C@H](CC(=O)O)NC(=O)[C@H](CO)NC(=O)[C@@H](NC(=O)[C@H](Cc1ccccc1)NC(=O)[C@@H](NC(=O)CNC(=O)[C@H](CCC(N)=O)NC(=O)C(C)(C)NC(=O)[C@@H](N)Cc1ccc(O)cc1)[C@@H](C)O)[C@@H](C)O)C(=O)N[C@@H](Cc1ccc(O)cc1)C(=O)N[C@@H](CC(C)C)C(=O)N[C@@H](CC(=O)O)C(=O)N[C@@H](CCN)C(=O)N[C@@H](CCC(N)=O)C(=O)N[C@@H](C)C(=O)N[C@@H](C)C(=O)NC(C)(C)C(=O)N[C@@H](CCC(=O)O)C(=O)N[C@@H](Cc1ccccc1)C(=O)N[C@H](C(=O)N[C@@H](CC(N)=O)C(=O)N[C@@H](Cc1c[nH]c2ccccc12)C(=O)N[C@@H](CC(C)C)C(=O)N[C@@H](CC(C)C)C(=O)N[C@@H](C)C(=O)NCC(=O)NCC(=O)N1CCC[C@H]1C(=O)N[C@@H](CO)C(=O)N[C@@H](CO)C(=O)NCC(=O)N[C@@H](C)C(=O)N1CCC[C@H]1C(=O)N1CCC[C@H]1C(=O)N1CCC[C@H]1C(=O)N[C@@H](CO)C(=O)N[C@@H](CS)C(N)=O)C(C)C) [mt-276] | 0.0537 | 0.0066 | 0.008 | 77.7 | 108 | 174
6 | Y[Aib]EGTFTSDYSIYLDKQAA[Aib]EFVNWLLAGGPSSGAPPPSC(PEG 40 kDa)-NH2 [mt-274] | 69.1 | 0.0916 | 0.035 | 0.06 | 7.75 | 39.7
7 | YXQGTFTSDYSIYLDXQAAXEFVNWLLAGGPSSGAPPPSC (Orn at position 16; AIB at position 20) [mt-275] | 0.0671 | 0.0068 | 0.0124 | 62.1 | 104 | 112
8 | Y[Aib]EGTFTSDYSIYLDKQAA[Aib]EFVC(PEG 40 kDa)WLLAGGPSSGAPPPSK(C18 fatty acyl)-NH2 [mt-310] | 0.775 | 0.0062 | 0.0075 | 8.24 | 253 | 275
9 | Y[Aib]EGTFTSDYSIYLDKQAA[Aib]EFVC(PEG 40 kDa)WLLAGGPSSGAPPPSK(Palmitoyl)-NH2 [mt-298] | 1.76 | 0.0087 | 0.0051 | 3.63 | 180 | 404
10 | Y[Aib]EGTFTSDYSIYLDKQAA[Aib]EFVCWLLAGGPSSGAPPPSK-NH2 (N-terminus assumed; SMILES CC[C@H](C)[C@H](NC(=O)[C@H](CO)NC(=O)[C@H](Cc1ccc(O)cc1)NC(=O)[C@H](CC(=O)O)NC(=O)[C@H](CO)NC(=O)[C@@H](NC(=O)[C@H](Cc1ccccc1)NC(=O)[C@@H](NC(=O)CNC(=O)[C@H](CCC(=O)O)NC(=O)C(C)(C)NC(=O)[C@@H](N)Cc1ccc(O)cc1)[C@@H](C)O)[C@@H](C)O)C(=O)N[C@@H](Cc1ccc(O)cc1)C(=O)N[C@@H](CC(C)C)C(=O)N[C@@H](CC(=O)O)C(=O)N[C@@H](CCCCN)C(=O)N[C@@H](CCC(N)=O)C(=O)N[C@@H](C)C(=O)N[C@@H](C)C(=O)NC(C)(C)C(=O)N[C@@H](CCC(=O)O)C(=O)N[C@@H](Cc1ccccc1)C(=O)N[C@H](C(=O)N[C@@H](CS)C(=O)N[C@@H](Cc1c[nH]c2ccccc12)C(=O)N[C@@H](CC(C)C)C(=O)N[C@@H](CC(C)C)C(=O)N[C@@H](C)C(=O)NCC(=O)NCC(=O)N1CCC[C@H]1C(=O)N[C@@H](CO)C(=O)N[C@@H](CO)C(=O)NCC(=O)N[C@@H](C)C(=O)N1CCC[C@H]1C(=O)N1CCC[C@H]1C(=O)N1CCC[C@H]1C(=O)N[C@@H](CO)C(=O)N[C@@H](CCCCN)C(N)=O)C(C)C) [mt-308] | – | 0.0237 | 0.0057 | – | – | –
11 | Y[Aib]EGTFTSDYSIYLDKQAA[Aib]EFVCWLLAGGPSSGAPPPSK(Myristoyl)-NH2 (N-terminus assumed; SMILES CCCCCCCCCCCCCC(=O)NCCCC[C@H](NC(=O)[C@H](CO)NC(=O)[C@@H]1CCCN1C(=O)[C@@H]1CCCN1C(=O)[C@@H]1CCCN1C(=O)[C@H](C)NC(=O)CNC(=O)[C@H](CO)NC(=O)[C@H](CO)NC(=O)[C@@H]1CCCN1C(=O)CNC(=O)CNC(=O)[C@H](C)NC(=O)[C@H](CC(C)C)NC(=O)[C@H](CC(C)C)NC(=O)[C@H](Cc1c[nH]c2ccccc12)NC(=O)[C@H](CS)NC(=O)[C@@H](NC(=O)[C@H](Cc1ccccc1)NC(=O)[C@H](CCC(=O)O)NC(=O)C(C)(C)NC(=O)[C@H](C)NC(=O)[C@H](C)NC(=O)[C@H](CCC(N)=O)NC(=O)[C@H](CCCCN)NC(=O)[C@H](CC(=O)O)NC(=O)[C@H](CC(C)C)NC(=O)[C@H](Cc1ccc(O)cc1)NC(=O)[C@@H](NC(=O)[C@H](CO)NC(=O)[C@H](Cc1ccc(O)cc1)NC(=O)[C@H](CC(=O)O)NC(=O)[C@H](CO)NC(=O)[C@@H](NC(=O)[C@H](Cc1ccccc1)NC(=O)[C@@H](NC(=O)CNC(=O)[C@H](CCC(=O)O)NC(=O)C(C)(C)NC(=O)[C@@H](N)Cc1ccc(O)cc1)[C@@H](C)O)[C@@H](C)O)[C@@H](C)CC)C(C)C)C(N)=O) [mt-306] | – | 0.0201 | 0.0064 | – | – | –
12 | Y[Aib]EGTFTSDYSIYLDKQAA[Aib]EFVCWLLAGGPSSGAPPPSK(Palmitoyl)-NH2 (N-terminus assumed; SMILES CCCCCCCCCCCCCCCC(=O)NCCCC[C@H](NC(=O)[C@H](CO)NC(=O)[C@@H]1CCCN1C(=O)[C@@H]1CCCN1C(=O)[C@@H]1CCCN1C(=O)[C@H](C)NC(=O)CNC(=O)[C@H](CO)NC(=O)[C@H](CO)NC(=O)[C@@H]1CCCN1C(=O)CNC(=O)CNC(=O)[C@H](C)NC(=O)[C@H](CC(C)C)NC(=O)[C@H](CC(C)C)NC(=O)[C@H](Cc1c[nH]c2ccccc12)NC(=O)[C@H](CS)NC(=O)[C@@H](NC(=O)[C@H](Cc1ccccc1)NC(=O)[C@H](CCC(=O)O)NC(=O)C(C)(C)NC(=O)[C@H](C)NC(=O)[C@H](C)NC(=O)[C@H](CCC(N)=O)NC(=O)[C@H](CCCCN)NC(=O)[C@H](CC(=O)O)NC(=O)[C@H](CC(C)C)NC(=O)[C@H](Cc1ccc(O)cc1)NC(=O)[C@@H](NC(=O)[C@H](CO)NC(=O)[C@H](Cc1ccc(O)cc1)NC(=O)[C@H](CC(=O)O)NC(=O)[C@H](CO)NC(=O)[C@@H](NC(=O)[C@H](Cc1ccccc1)NC(=O)[C@@H](NC(=O)CNC(=O)[C@H](CCC(=O)O)NC(=O)C(C)(C)NC(=O)[C@@H](N)Cc1ccc(O)cc1)[C@@H](C)O)[C@@H](C)O)[C@@H](C)CC)C(C)C)C(N)=O) [mt-296] | – | 0.0124 | 0.0077 | – | – | –
